Test results taken from article PMC7267768, “Three kinds of treatment with Homoharringtonine, Hydroxychloroquine or shRNA and their combination against coronavirus PEDV in vitro” (Virology Journal, 2020).

Biological target: T1, HR1 peptide of the PEDV spike glycoprotein (optimal focused HR1 domain) (porcine epidemic diarrhea virus (PEDV))
T1 construct: Spike glycoprotein of porcine epidemic diarrhea virus (PEDV), heptad repeat 1; numbers count on: GenBank ALS35469.1; source: synthetic peptide (China Peptides)
T1 peptide: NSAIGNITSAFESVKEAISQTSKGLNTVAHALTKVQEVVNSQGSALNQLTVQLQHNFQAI
Assay: SEC; HR1 and tHR2 mixed, each at 15 uM, incubated 2 h; Superdex G75, 20 mM Tris-HCl pH 8.0; mass estimated against protein standards
Conditions: both partners purified

B1: truncated HR2 peptide tHR2 of the PEDV spike glycoprotein (1278-1316, 39Aa) (peptide)
peptide: LTGEIADLEQRSESLRNTTEELRSLINNINNTLVDLEWL
notes: Spike glycoprotein of porcine epidemic diarrhea virus (PEDV), truncated heptad repeat 2, residues 1278-1316 (39 residues); the predicted HR2 domain is 1263-1314; numbers count on: GenBank ALS35469.1; source: synthetic peptide (China Peptides)
stoichiometry N: ~1 tHR2 per HR1 (3:3)
